According to patent US20230227537A1:

Target: recombinant prefusion stabilized SARS-CoV-2-2P spike protein (SARS-CoV-2) (UniProt P0DTC2)

“D72-15: VHH72-GS-hIgG1hinge-hIgG1Fc-L234A-L235A-P329G (Fc fusion)” gave an EC50 of 0.014 µg/mL.
